One block for each binder: values may come before it. Positions of bridges follow the written chain, without caps; N, C: chain ends. Non-standard residues stand in square brackets, D forms with d. p(HEMA-co-NHSMA) = copolymer of 2-hydroxyethyl methacrylate and N-hydroxysuccinimidyl ester methacrylate; Hyp = O=C(O)[C@@H]1C[C@@H](O)CN1
Assays:
[1] = biological target: T1, Fibrin (pure fibrin clots formed from fibrinogen and thrombin) (UniProt P02671 36-629; P02675 45-491; P02679 27-437, limits assumed); test: cell-based or functional assay
T1 sequence (looked up) 1: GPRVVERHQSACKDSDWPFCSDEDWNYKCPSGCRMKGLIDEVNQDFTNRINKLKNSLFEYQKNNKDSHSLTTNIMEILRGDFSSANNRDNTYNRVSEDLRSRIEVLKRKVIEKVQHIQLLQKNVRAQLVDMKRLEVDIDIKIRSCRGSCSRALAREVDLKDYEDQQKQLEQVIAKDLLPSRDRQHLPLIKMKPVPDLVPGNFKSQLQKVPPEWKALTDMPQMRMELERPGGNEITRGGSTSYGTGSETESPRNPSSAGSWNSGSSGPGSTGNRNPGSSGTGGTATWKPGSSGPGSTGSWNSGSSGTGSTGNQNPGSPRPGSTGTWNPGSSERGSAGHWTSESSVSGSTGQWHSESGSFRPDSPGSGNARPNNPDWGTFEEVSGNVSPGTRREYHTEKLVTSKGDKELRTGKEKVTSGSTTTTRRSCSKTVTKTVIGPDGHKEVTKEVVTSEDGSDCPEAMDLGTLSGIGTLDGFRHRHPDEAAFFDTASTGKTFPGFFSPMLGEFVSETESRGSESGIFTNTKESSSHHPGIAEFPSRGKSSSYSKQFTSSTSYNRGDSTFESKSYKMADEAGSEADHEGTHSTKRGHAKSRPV
T1 sequence (looked up) 2: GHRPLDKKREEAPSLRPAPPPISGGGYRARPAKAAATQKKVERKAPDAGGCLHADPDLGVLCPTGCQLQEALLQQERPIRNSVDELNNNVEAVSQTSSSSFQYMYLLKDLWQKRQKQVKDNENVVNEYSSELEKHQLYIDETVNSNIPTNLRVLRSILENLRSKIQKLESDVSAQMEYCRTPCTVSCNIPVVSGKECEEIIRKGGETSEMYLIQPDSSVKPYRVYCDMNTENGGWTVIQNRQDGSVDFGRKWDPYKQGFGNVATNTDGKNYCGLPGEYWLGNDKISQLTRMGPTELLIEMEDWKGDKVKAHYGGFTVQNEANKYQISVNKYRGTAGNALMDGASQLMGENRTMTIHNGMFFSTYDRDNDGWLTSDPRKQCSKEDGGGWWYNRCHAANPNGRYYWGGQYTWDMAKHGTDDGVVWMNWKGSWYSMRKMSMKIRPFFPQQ
T1 sequence (looked up) 3: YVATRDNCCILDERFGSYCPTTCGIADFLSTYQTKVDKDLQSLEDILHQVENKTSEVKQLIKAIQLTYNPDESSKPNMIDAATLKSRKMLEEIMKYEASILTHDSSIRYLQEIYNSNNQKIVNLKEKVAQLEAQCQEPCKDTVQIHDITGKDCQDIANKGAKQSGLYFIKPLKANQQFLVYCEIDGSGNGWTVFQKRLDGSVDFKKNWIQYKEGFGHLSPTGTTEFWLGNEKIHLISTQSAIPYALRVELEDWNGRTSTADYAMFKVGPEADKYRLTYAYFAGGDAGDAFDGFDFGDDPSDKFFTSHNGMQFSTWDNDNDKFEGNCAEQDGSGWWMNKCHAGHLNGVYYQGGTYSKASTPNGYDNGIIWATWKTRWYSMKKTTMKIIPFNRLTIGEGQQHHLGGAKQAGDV

[2] = biological target: T2, Fibrin (pure fibrin clots formed from fibrinogen and thrombin), P02671
T2 chain 1: T1 sequence (looked up) 1
T2 chain 2: T1 sequence (looked up) 2
T2 chain 3: T1 sequence (looked up) 3

- clot strength (MA, TEG) relative to controls [1]: 2.5 times
Binder: Ac-Y[dE]C[Hyp]YGLCYIQGK(p(HEMA-co-NHSMA))-NH2 (other, disulfide 3-8; also: about 16 peptides grafted per polymer backbone)

B1: Human Factor XIIIa (HFXIIIa) (protein)
chain: GVNLQEFLNVTSVHLFKERWDTNKVDHHTDKYENNKLIVRRGQSFYVQIDFSRPYDPRRDLFRVEYVIGRYPQENKGTYIPVPIVSELQSGKWGAKIVMREDRSVRLSIQSSPKCIVGKFRMYVAVWTPYGVLRTSRNPETDTYILFNPWCEDDAVYLDNEKEREEYVLNDIGVIFYGEVNDIKTRSWSYGQFEDGILDTCLYVMDRAQMDLSGRGNPIKVSRVGSAMVNAKDDEGVLVGSWDNIYAYGVPPSAWTGSVDILLEYRSSENPVRYGQCWVFAGVFNTFLRCLGIPARIVTNYFSAHDNDANLQMDIFLEEDGNVNSKLTKDSVWNYHCWNEAWMTRPDLPVGFGGWQAVDSTPQENSDGMYRCGPASVQAIKHGHVCFQFDAPFVFAEVNSDLIYITAKKDGTHVVENVDATHIGKLIVTKQIGGDGMMDITDTYKFQEGQEEERLALETALMYGAKKPLNTEGVMKSRSNVDMDFEVENAVLGKDFKLSITFRNNSHNRYTITAYLSANITFYTGVPKAEFKKETFDVTLEPLSFKKEAVLIQAGEYMGQLLEQASLHFFVTARINETRDVLAKQKSTVLTIPEIIIKVRGTQVVGSDMTVTVEFTNPLKETLRNVWVHLDGPGVTRPMKKMFREIRPNSTVQWEEVCRPWVSGHRKLIASMSSDSLRHVYGELDVQIQRRPSM
- pore radius of fibrin clots (permeation study) [2]: 286±18 nm

Reference: patent US20160263148A1 (University of Washington, published 2016)
